# Measured values from patent US20110256144A1 (TORAY INDUSTRIES, published 2011).
# T1: human CAPRIN-1 protein on human cancer cells (human, UniProt Q14444 2-709)
# T1 sequence (looked up): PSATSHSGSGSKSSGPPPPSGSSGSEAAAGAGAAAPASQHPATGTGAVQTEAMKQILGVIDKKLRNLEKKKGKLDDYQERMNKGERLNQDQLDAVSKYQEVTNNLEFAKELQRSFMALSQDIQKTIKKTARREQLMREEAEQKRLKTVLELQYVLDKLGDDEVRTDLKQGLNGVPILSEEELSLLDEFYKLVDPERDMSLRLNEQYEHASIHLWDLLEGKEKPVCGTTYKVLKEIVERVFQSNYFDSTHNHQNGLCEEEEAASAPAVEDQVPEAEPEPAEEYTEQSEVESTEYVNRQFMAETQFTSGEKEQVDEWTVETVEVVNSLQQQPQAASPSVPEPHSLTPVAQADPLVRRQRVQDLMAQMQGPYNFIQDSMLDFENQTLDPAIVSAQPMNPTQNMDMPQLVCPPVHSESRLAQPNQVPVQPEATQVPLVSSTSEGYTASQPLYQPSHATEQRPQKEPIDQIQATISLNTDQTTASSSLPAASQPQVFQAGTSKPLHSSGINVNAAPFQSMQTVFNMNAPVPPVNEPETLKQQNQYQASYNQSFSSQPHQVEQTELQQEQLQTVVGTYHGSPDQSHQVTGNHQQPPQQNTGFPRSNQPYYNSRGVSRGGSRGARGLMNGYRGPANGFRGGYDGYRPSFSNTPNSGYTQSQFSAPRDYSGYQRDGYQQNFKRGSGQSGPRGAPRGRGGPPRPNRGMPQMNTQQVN
# Tests used:
# [1] = target: T1, human CAPRIN-1 protein on human cancer …; assay: cell-based or functional assay
# [2] = target: T1, human CAPRIN-1 protein on human cancer …; assay: flow cytometry, hybridoma supernatant on human breast cancer, glioma, kidney, gastric, colon, lung cancer and leukemia cell lines; increase in MFI over control
# Procedure: Each cell line (10⁶ cells) was centrifuged in a 1.5-ml microcentrifugal tube. The hybridoma supernatants (100 μl each) containing monoclonal antibodies #1 to #10 against CAPRIN-1 prepared in Example 4 reacting to cancer cell surfaces were separately added thereto and then left to stand on ice for 1 hour. After washing with PBS, each resultant was suspended in an FITC-labeled goat anti-mouse IgG antibody (Invitrogen Corporation) diluted 500-fold with PBS containing 0.1% FBS and then left to stand on ice for 1 hour. After washing with PBS, fluorescence intensity was measured using FACSCalibur (Becton, Dickinson and Company). Meanwhile, a procedure similar to the above was performed using, as a control, the control antibody prepared in (5) above instead of the hybridoma supernatants containing monoclonal antibodies #1 to […] against CAPRIN-1, so that a control was prepared. […] Based on the above, it was confirmed that the CAPRIN-1 protein was expressed on the cell surfaces of the above human cancer cell lines. In addition, the rate of increase in fluorescence intensity is represented by the rate of increase in mean fluorescence intensity (MFI value) in cells. It was calculated by the following equation.
Binder,"ADCC activity (chromium 51 release, mouse lymphocytes), MDA-MB-157 cells [1] [%]","CDC activity (chromium 51 release, rabbit serum), MDA-MB-231V cells [1] [%]",increase in fluorescence intensity over control [2] [%]
"monoclonal antibody #7 against CAPRIN-1 (antibody, V domains shown, Mouse monoclonal antibody from a hybridoma; also called the #7 monoclonal antibody to CAPRIN-1; antibody (g)) VH: LQESGAELARPGASVKLSCKASGYTFTSYWMQWVKQRPGQGLEWIGAIYPGDGDTRYTQKFKGKATLTADKSSSTAYMQLSSLASEDSAVYYCARGEYGNYFAYWGQGTTVTVSS VL: TSDASLGERVTITCKASQDINSYLSWFQQKPGKSPKTLIYRANRLVDGVPSRFSGSGSGQDYSLTISSLEYEDMGIYYCLQYDEFPLTFGGGTKLEIKQ",≥ 20,≥ 30,≥ 30
"monoclonal antibody #1 against CAPRIN-1 (antibody, V domains shown, also called the #1 monoclonal antibody to CAPRIN-1; antibody (a)) VH: EVQLHQFGAELVKPGASVKISCKASGYTFTDYNMDWVKQSHGKSLEWIGDINPNYDSTSYNQKFKGKATLTVDKSSSTAYMELRSLTSEDTAVYYCARSRSYDYEGFAYWGQGTLVTVSA VL: DIQMTQSPASLSASVGETVTITCRASGNIHNYLAWYQQKQGKSPQLLVYNAKTLADGVPSRFSGSGSGTQYSLKINSLQPEDFGSYYCQHFWSTLTFGAGTKLELKR",≥ 20,≥ 30,≥ 30
"monoclonal antibody #4 against CAPRIN-1 (antibody, V domains shown, Mouse monoclonal antibody from a hybridoma; also called the #4 monoclonal antibody to CAPRIN-1; antibody (d)) VH: EVQLHQFGAELVKPGASVKISCKASGYTFTDYNMDWVKQSHGKSLEWIGDINPNYDSTSYNQKFKGKATLTVDKSSSTAYMELRSLTSEDTAVYYCARSRSYDYEGFAYWGQGTLVTVSA VL: SGDRVSLSCRASQSISNYLHWYQQKSHESPRLLIKYASQSISGIPSRFSGSGSGTDFTLSINSVETEDFGMYFCQQSNSWPYTFGAGTKLEIKQ",≥ 20,≥ 30,≥ 30
"monoclonal antibody #3 against CAPRIN-1 (antibody, V domains shown, Mouse monoclonal antibody from a hybridoma; also called the #3 monoclonal antibody to CAPRIN-1; antibody (c)) VH: EVQLHQFGAELVKPGASVKISCKASGYTFTDYNMDWVKQSHGKSLEWIGDINPNYDSTSYNQKFKGKATLTVDKSSSTAYMELRSLTSEDTAVYYCARSRSYDYEGFAYWGQGTLVTVSA VL: DIQLTQSPASLSASVGETVTITCRASGNIHNYLAWYQQKQGKSPQLLVYNAKTLADGVPSRFSGSGSGTQYSLKINSLQPEDFGSYYCQHFWSTLTFGGGTKLEIK",≥ 20,≥ 30,≥ 30
